Source: patent publication US20180362616

Molecular target: T1, APPI-WT (SEQ ID NO: 25), soluble, expressed in Pichia pastoris
T1 chain: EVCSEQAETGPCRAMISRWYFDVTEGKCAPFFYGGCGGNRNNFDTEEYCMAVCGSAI

B1: human mesotrypsin (catalytically active) (protein)
chain: IVGGYTCEENSLPYQVSLNSGSHFCGGSLISEQWVVSAAHCYKTRIQVRLGEHNIKVLEGNEQFINAAKIIRHPKYNRDTLDNDIMLIKLSSPAVINARVSTISLPTTPPAAGTECLISGWGNTLSFGADYPDELKCLDAPVLTQAECKASYPGKITNSMFCVGFLEGGKDSCQRDSGGPVVCNGQLQGVVSWGHGCAWKNRPGVYTKVYNYVDWIKDTIAANS
- Kcat (s^-1) of hydrolysis of APPI by mesotrypsin (HPLC time course): 0.0356 s⁻¹
